Test results from US20140178390A1.

Assays:
[1] = biological target: Human CXCR7 (human) (UniProt P25106); assay: cell-based or functional assay
[2] = biological target: Human CXCR7 (human) (UniProt P25106); assay: [125I]-CXCL12 displacement on NIH3T3-hCXCR7 cells
[3] = biological target: Human CXCR7 (human) (UniProt P25106); assay: competition FACS with 4 nM biotinylated SDF-1 on HEK-hCXCR7 cells
[4] = biological target: Human CXCR7 (human) (UniProt P25106); assay: [125I]-CXCL12 displacement on NIH3T3-hCXCR7 cells, relative to cold SDF-1

Chain of Human CXCR7 (human) (P25106 whole entry): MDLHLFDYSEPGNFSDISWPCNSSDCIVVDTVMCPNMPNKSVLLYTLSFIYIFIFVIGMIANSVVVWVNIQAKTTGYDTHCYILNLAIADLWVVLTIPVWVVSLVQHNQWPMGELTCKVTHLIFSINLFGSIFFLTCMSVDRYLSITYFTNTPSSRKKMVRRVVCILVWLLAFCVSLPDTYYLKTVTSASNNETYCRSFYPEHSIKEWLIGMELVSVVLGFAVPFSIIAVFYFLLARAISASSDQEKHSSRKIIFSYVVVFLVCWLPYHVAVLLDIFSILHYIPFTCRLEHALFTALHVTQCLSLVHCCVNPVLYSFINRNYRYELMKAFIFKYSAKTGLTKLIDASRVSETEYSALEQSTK

- β-arrestin recruitment in absence of HSA [IC50] [1]: 12.9
- β-arrestin recruitment in presence of HSA [IC50] [1]: 34.8
- Ki [2]: 5.9 nM
- competition relative to unlabelled SDF-1 (%) [3]: > 95%
- Average SDF-1 displacement (%) [4]: 73%
Substance: Mab 8F11 (Biolegend) (antibody)
